According to patent US20240239878A1 (SHANGHAI QILU PHARMACEUTICAL RESEARCH AND DEVELOPMENT CENTRE, published 2024):

T1: human DLL3 antigen protein (Kactus Biosystems, Cat. No. DLL-HM103) (human, UniProt Q9NYJ7 27-492)
T1 sequence: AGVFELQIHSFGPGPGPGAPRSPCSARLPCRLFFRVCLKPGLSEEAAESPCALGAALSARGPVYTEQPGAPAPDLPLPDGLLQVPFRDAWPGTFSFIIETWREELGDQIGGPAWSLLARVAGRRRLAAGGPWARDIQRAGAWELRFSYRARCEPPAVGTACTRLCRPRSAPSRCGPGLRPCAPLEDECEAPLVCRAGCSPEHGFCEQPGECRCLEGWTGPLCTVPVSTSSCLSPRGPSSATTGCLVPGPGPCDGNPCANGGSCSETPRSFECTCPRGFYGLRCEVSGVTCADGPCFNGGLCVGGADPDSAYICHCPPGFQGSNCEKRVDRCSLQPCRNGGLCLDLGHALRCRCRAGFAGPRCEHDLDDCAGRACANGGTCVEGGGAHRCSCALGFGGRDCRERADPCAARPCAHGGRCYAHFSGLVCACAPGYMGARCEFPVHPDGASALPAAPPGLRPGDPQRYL

T2: human DLL3 on SHP-77 cells (human, UniProt Q9NYJ7 27-618)
T2 construct: also called DLL3-expressing cells (SHP-77)
T2 sequence: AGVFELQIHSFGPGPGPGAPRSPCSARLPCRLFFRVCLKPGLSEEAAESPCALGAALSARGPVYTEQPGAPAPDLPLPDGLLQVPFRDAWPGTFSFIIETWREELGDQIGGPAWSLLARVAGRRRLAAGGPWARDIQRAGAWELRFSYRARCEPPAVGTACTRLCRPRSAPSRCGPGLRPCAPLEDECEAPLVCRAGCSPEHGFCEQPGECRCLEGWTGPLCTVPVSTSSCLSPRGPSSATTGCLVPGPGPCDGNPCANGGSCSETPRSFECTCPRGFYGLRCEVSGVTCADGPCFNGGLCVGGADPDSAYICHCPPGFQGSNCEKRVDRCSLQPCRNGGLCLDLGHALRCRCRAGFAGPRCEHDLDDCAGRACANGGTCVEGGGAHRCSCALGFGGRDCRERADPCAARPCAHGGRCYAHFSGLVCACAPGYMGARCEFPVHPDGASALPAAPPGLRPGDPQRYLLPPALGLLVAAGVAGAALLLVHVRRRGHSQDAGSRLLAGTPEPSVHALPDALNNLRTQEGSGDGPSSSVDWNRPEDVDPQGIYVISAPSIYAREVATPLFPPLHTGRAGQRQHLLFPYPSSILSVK

B1: hDLL3-3-1 camelid-derived humanized anti-DLL3 antibody (antibody, human IgG1, V domains shown)
VH: EVQLVESGGGLVQPGGSLRLSCAASTYTISSGYMGWFRQAPGKEREGVAAIYIGGSTTLYADSVKGRFTISRDNSKNTLYLQMNSLRAEDTAVYYCAAQLRPNSAYHPLDGRKYNYWGQGTLVTVSS
B2: H2-39E2D11 mouse hybridoma-derived humanized anti-DLL3 antibody (antibody, V domains shown)
VH: QVQLVQSGAEVKKPGASVKVSCKASGYTFISYWITWVRQAPGQGLEWMGDIYPGSGSTTNYNEKFKSRVTMTRDTSTSTVYMELSSLRSEDTAVYYCARETTVGGAYAMDYWGQGTLVTVSS
VL: EIVLTQSPATLSLSPGERATLSCRASQSINNNLHWYQQKPGQAPRLLIKYVSQSISGIPARFSGSGSGTDFTLTISSLEPEDFAVYYCQQTNSWPLTFGGGTKLEIK

What was measured:
[1] = biological target: T1, human DLL3 antigen protein (Kactus …); assay: affinity assay with human DLL3 antigen protein (kinetics; method not restated, Biacore as in Example 10 implied)
[2] = biological target: T1, human DLL3 antigen protein (Kactus …); assay: affinity assay with human DLL3 antigen protein (kinetics; method not restated, Biacore as in Example 18 implied)
[3] = biological target: T2, human DLL3 on SHP-77 cells; assay: flow cytometry, SHP-77 cells
In short: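 Trypsinised SHP-77 cells in 1% BSA/PBS were incubated with antibody (100 nM top, 10-fold steps, 7 concentrations) for 1 h at 4° C. Bound antibody was detected with goat anti-human IgG Fc-PE for 0.5 h at 4° C and read as PE mean fluorescence intensity. EC50 and Top MFI were derived from the curves.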

[4] = biological target: T3, human DLL4 (Sino Biological, Cat. No. 10171-H08H) (human, UniProt Q9NR61 27-529); assay: ELISA, plate coated with human DLL4 at 1 ug/mL, OD 450nm
T3 construct: also called family protein DLL4
T3 sequence (Q9NR61 27-529 limits assumed): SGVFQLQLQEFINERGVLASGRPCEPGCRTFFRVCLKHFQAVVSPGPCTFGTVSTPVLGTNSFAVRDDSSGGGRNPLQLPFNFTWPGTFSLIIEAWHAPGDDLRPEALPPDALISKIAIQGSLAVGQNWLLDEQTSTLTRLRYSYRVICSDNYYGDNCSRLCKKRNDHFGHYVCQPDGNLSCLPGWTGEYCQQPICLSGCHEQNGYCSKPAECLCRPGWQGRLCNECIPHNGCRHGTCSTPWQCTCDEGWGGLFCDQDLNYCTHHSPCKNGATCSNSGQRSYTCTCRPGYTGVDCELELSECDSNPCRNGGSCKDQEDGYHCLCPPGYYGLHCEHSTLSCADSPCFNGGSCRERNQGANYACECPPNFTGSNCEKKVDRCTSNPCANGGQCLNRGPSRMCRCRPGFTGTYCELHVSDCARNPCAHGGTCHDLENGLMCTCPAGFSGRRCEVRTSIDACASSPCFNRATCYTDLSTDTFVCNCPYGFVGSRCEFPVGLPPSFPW
Protocol: The antigenic proteins human DLL1 (SinoBiological, cat. No. 11635-H08H) or human DLL4 (SinoBiological, cat. No. 10171-H08H) were dissolved in 1×PBS at a concentration of 1 μg/mL. […] The antigen was washed three times with PBST, 300 μL/well. The antigen was blocked with 1% BSA (in PBST), 200 µL/well, and incubated at 37° C. for 1.5 hours.
Antibodies to be tested were diluted with 1% BSA (in PBS) at a starting concentration of 100 nM, downwards by a 10-fold gradient for 7 concentrations. The plates were washed three times with PBST, 300 μL/well. The diluted antibody was added to an ELISA plate at 100 μL/well and incubated at room temperature for 2 hours. The antibodies were washed three times with PBST, 300 μL/well. The secondary antibodies (goat anti-human IgG Fc for DLL4 (HRP), 1:20000 dilution; HRP goat anti-mouse IgG (H+L) for DLL1, 1:10000 dilution) were diluted with 1% BSA in PBST. The diluted secondary antibodies were added to the ELISA plate at 100 μL/well and incubated at room temperature for 1 hour. The plates were washed 6 times with PBST, 300 μL/well. The developing solution (TMA and TMB 1:1 mixed) was prepared. The developing solution was added to the plate, 100 μL/well, and incubated in the dark for 5 min. 50 μL of ELISA stop solution was added to the plate and shaken well.

Row | Binder | Kd [1] [nM] | koff [1] [s⁻¹] | kon [1] [M⁻¹ s⁻¹] | Kd [2] [nM] | koff [2] [s⁻¹] | kon [2] [M⁻¹ s⁻¹] | EC50 [3] [nM] | Top MFI [3] [MFI] | binding result [4]
1 | B1 | 0.45 | 0.000614 | 1.36e+06 |  |  |  |  |  | 
2 | B2 |  |  |  | 0.739 | 0.000134 | 181000 | 1.12 | 1570 | no binding (tested: 100 nM)
